From article PMC6746776, “TA*p63 and GTAp63 achieve tighter transcriptional regulation in quality control by converting an inhibitory element into an additional transactivation domain” (Cell Death & Disease, 2019)
“And” between values parts separate entries of the source, which are not always exact repeats. Identical values can stand only once. Residues, ends and D or L forms follow the SMILES beside them.

Assays:
[1] = molecular target: TAp63α; assay: native gel or EMSA; Blue-Native PAGE of lysates of transiently transfected U2OS or H1299 cells treated with 10 µM doxorubicin for 6 h; western blot with anti-myc
[2] = molecular target: TAp63α; assay: native gel or EMSA; Blue-Native PAGE (3-12%) of lysates of transiently transfected H1299 cells, untreated, harvested 24 h after transfection; western blot with anti-myc
[3] = molecular target: GTAp63α FWL (not stated (isoform of humans and great apes)); assay: SEC; in vitro translated protein in rabbit reticulocyte lysate on Superose 6 3.2/300, 50 mM sodium phosphate pH 7.8, 100 mM NaCl, 4 °C; fractions analysed by western blot
[4] = system: TAp63α; assay: BN-PAGE oligomeric state of TAp63α upon Dox treatment; conditions: H1299 stably expressing; pre-incubated with inhibitor 5, 25, 50 µM for 1 h, then 10 µM Dox 6 h; BN-PAGE
Experimental: (§1) As a control, we used the S582/S583A mutants, which remove the Chk2 priming site preventing tetramerization[13].
(§2) Three hundred nanogram expression vector carrying the p63α gene were transiently transfected in U2OS cells (12-well plate). The next day, cells were treated with 10 µM Dox for 6 h. Migration of the different oligomeric states is indicated by T (tetramer), D (dimer), and M (monomer). […] Western blot analysis was carried out using an anti-myc antibody (4A6, Merck). Cells were pre-incubated with increasing Chk2 (BML-277, Merck) or CK1 inhibitor (PF670462, Sigma–Aldrich) concentrations (5, 25, 50 µM) for 1 h. Afterwards, 10 µM Dox was added and cells were harvested 6 h later. Migration of the different oligomeric states is indicated by T (tetramer), D (dimer), and M (monomer). Vinculin was used as loading control. Protein levels loaded on BN-PAGE were adjusted to equal p63 amounts by prior western blot analysis. SDS-PAGE to detect phosphoshifts were not input adjusted
(§3) H1299 cells were transfected using the Qiagen Effectene kit according to the manufacturer’s manual in a 12-well plate or H1299 cells stably expressing p63 isoforms were used. Cells were harvested and lysed in NP lysis buffer (20 mM Tris, 150 mM NaCl, 2 mM MgCl2, 20 mM CHAPS, 1 mM DTT, complete protease inhibitor cocktail (Roche), PhosSTOP (Roche) pH 7.4 or pH 8.0). Benzonase (Merck) was added and samples were lysed on ice for 1 h. BN-PAGE (3–12%, Thermo Fisher Scientific) was performed and blotted as previously described[17],[35]. Protein levels loaded on BN-PAGE were adjusted to equal p63 amounts by prior western blot analysis. SDS-PAGE to detect phosphoshifts were not input adjusted.
(§4) 300 ng expression vector carrying the p63 gene were transiently transfected in H1299 cells (12-well plate). The next day, cells were treated with 10 µM Dox for 6 h. Migration of the different oligomeric states is indicated by T (tetramer), D (dimer) and M (monomer). […] Stably p63 expressing H1299 were treated with 10 µM Dox for up to 10 h. Protein levels loaded on BN-PAGE were adjusted to equal p63 amounts by prior western blot analysis. SDS-PAGE to detect phosphoshifts were not input adjusted.

[5] = system: GTAp63α; assay: BN-PAGE oligomeric state of GTAp63α upon Dox treatment; conditions: H1299 stably expressing; pre-incubated with inhibitor 5, 25, 50 µM for 1 h, then 10 µM Dox 6 h; BN-PAGE
Experimental: as §1, §2, §3, §4

[6] = system: TA*p63α; assay: BN-PAGE oligomeric state of TA*p63α upon Dox treatment; conditions: H1299 stably expressing; pre-incubated with inhibitor 5, 25, 50 µM for 1 h, then 10 µM Dox 6 h; BN-PAGE
Experimental: as §1, §2, §3, §4

[7] = molecular target: GTAp63α (not stated (isoform of humans and great apes)); assay: native gel or EMSA; Blue-Native PAGE of lysates of transiently transfected U2OS or H1299 cells treated with 10 µM doxorubicin for 6 h; western blot with anti-myc
[8] = molecular target: GTAp63α (not stated (isoform of humans and great apes)); assay: as above; remark: listed apart in the source
[9] = molecular target: GTAp63α (not stated (isoform of humans and great apes)); assay: native gel or EMSA; Blue-Native PAGE (3-12%) of lysates of transiently transfected H1299 cells, untreated, harvested 24 h after transfection; western blot with anti-myc
[10] = molecular target: T1, p300 Taz2 domain (Homo sapiens, UniProt Q09472); assay: Fluorescence anisotropy with the Taz2 domain of p300; conditions: 100 nM N-terminal fluorescein-labeled peptide, increasing concentration of Taz2, 22 °C, two site specific binding fit (GraphPad Prism 5)
T1 construct: The p300 Taz2 domain was expressed and purified as described before; made in house
T1 sequence (Q09472 1728-1809 limits assumed): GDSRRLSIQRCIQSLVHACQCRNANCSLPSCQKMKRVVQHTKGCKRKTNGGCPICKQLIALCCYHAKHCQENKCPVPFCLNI
Experimental: Fig. 5 Transactivation potential of constitutively tetrameric TA*p63 and GTAp63 isoforms and its correlation with p300 Taz2 domain interaction. a TA assay of C-terminal TA*p63 and GTAp63 isoforms in comparison to TAp63 C-terminal isoforms on the p21 promotor. p53 wt was used as positive, the p53 R175H mutant as negative control. Hundred nanogram of each plasmid (pcDNA3, pGL3 and pRL-CMV) were transiently transfected in Saos-2 cells (12-well plate). Cells were harvested 24 h after transfection and assay was performed. b, c TA titration assay of TA*p63γ and GTAp63γ compared to TAp63γ on the p21 promotor. […] Protein levels were determined via western blotting. […] GAPDH was used as loading control. p63 isoforms were detected with the p63 antibody ab124762 (Abcam) for sensitivity reasons. e TA assay of FWL and potential new TA motif mutants to alanine in the N-terminus of the TA*/GTAp63 isoforms (TA*p63: Y18* F22*, W31* Y35*; GTAp63:.W9′ F12′ V15′, W29′ Y33′) on the p21 promotor. p53 wt was used as positive control, the p53 R175H mutant as negative control. […] Bars represent the mean value of the biological triplicate, error bars represent SD, crosses represent mean value of the technical replicates. f Fluorescence anisotropy experiment with the Taz2 domain of p300 and either N-terminal fluorescein-tagged TA*-GTA*- (1*-39*) or GTA-GTA*- (1′-37′) peptide. […]

[11] = molecular target: the molecule itself; assay: native gel or EMSA; Blue-Native PAGE of lysates of transiently transfected U2OS or H1299 cells treated with 10 µM doxorubicin for 6 h; western blot with anti-myc
[12] = molecular target: the molecule itself; assay: native gel or EMSA; Blue-Native PAGE (3-12%) of lysates of transiently transfected H1299 cells, untreated, harvested 24 h after transfection; western blot with anti-myc

Molecule: TAp63α (natural protein)
- stoichiometry N [1]: 4
- stoichiometry N [2]: 2

Molecule: GTAp63α FWL (natural protein)
- stoichiometry N [3]: 2

Molecule: Nc1nccc(-c2c(-c3ccc(F)cc3)ncn2C2CCCCC2)n1 [PF670462]
- prevention of Dox-induced tetramerization, TAp63α [4]: Tetramerization can also be prevented
- prevention of Dox-induced tetramerization, GTAp63α [5]: Tetramerization can also be prevented
- prevention of Dox-induced tetramerization, TA*p63α [6]: Tetramerization can also be prevented

Molecule: GTAp63α (natural protein)
- stoichiometry N [7]: 2
- stoichiometry N [8]: 4
- stoichiometry N [9]: 2

Molecule: CC[C@H](C)[C@H](NC(=O)[C@H](Cc1ccc(O)cc1)NC(=O)[C@@H]1CCCN1C(=O)[C@H](CC(=O)O)NC(=O)[C@@H]1CCCN1C(=O)[C@H](CS)NC(=O)[C@H](Cc1ccc(O)cc1)NC(=O)[C@H](CCC(N)=O)NC(=O)[C@H](CC(C)C)NC(=O)[C@@H](NC(=O)[C@H](C)NC(=O)[C@H](CS)NC(=O)[C@H](CCCNC(=N)N)NC(=O)[C@H](CO)NC(=O)[C@@H](NC(=O)[C@H](CCC(=O)O)NC(=O)[C@H](Cc1ccccc1)NC(=O)[C@H](CC(N)=O)NC(=O)[C@@H](N)CCSC)[C@@H](C)O)[C@@H](C)O)C(=O)N[C@@H](CCC(N)=O)C(=O)N[C@@H](CCCNC(=N)N)C(=O)N[C@@H](Cc1ccccc1)C(=O)N[C@H](C(=O)N[C@@H](CCC(=O)O)C(=O)N[C@H](C(=O)N1CCC[C@H]1C(=O)N[C@@H](C)C(=O)N[C@@H](Cc1c[nH]cn1)C(=O)N[C@@H](Cc1ccccc1)C(=O)N[C@@H](CO)C(=O)N[C@@H](Cc1c[nH]c2ccccc12)C(=O)N[C@@H](CCCCN)C(=O)N[C@@H](CCC(=O)O)C(=O)N[C@@H](CO)C(=O)N[C@@H](Cc1ccc(O)cc1)C(=O)N[C@@H](Cc1ccc(O)cc1)C(=O)N[C@@H](CCCNC(=N)N)C(=O)N[C@@H](CO)C(=O)N[C@H](C(=O)O)[C@@H](C)O)[C@@H](C)O)C(C)C [TA*-GTA*] (H-MNFETSRCATLQYCPDPYIQRFVETPAHFSWKESYYRST-OH)
- Kd [10]: 13.2 ± 0.93 µM

Molecule: CSCC[C@H](N)C(=O)N[C@@H](CCCCN)C(=O)N[C@@H](CS)C(=O)N[C@@H](Cc1c[nH]c2ccccc12)C(=O)N[C@@H](CCC(=O)O)C(=O)N[C@@H](CCC(N)=O)C(=O)N[C@@H](CCCNC(=N)N)C(=O)N[C@@H](CC(=O)O)C(=O)N[C@@H](Cc1c[nH]c2ccccc12)C(=O)N[C@H](C(=O)N[C@@H](C)C(=O)N[C@@H](Cc1ccccc1)C(=O)N[C@H](C(=O)N[C@@H](CCCCN)C(=O)N[C@H](C(=O)NCC(=O)N[C@@H](CCCCN)C(=O)N1CCC[C@H]1C(=O)N[C@@H](CS)C(=O)N[C@@H](Cc1ccccc1)C(=O)N[C@H](C(=O)N[C@@H](CCC(=O)O)C(=O)N[C@H](C(=O)N1CCC[C@H]1C(=O)N[C@@H](C)C(=O)N[C@@H](Cc1c[nH]cn1)C(=O)N[C@@H](Cc1ccccc1)C(=O)N[C@@H](CO)C(=O)N[C@@H](Cc1c[nH]c2ccccc12)C(=O)N[C@@H](CCCCN)C(=O)N[C@@H](CCC(=O)O)C(=O)N[C@@H](CO)C(=O)N[C@@H](Cc1ccc(O)cc1)C(=O)N[C@@H](Cc1ccc(O)cc1)C(=O)N[C@@H](CCCNC(=N)N)C(=O)N[C@@H](CO)C(=O)N[C@H](C(=O)O)[C@@H](C)O)[C@@H](C)O)C(C)C)C(C)C)[C@@H](C)O)[C@@H](C)O [GTA-GTA*] (H-MKCWEQRDWTAFTKVGKPCFVETPAHFSWKESYYRST-OH)
- Kd [10]: 4.79 ± 0.24 µM

Molecule: NC(=O)c1ccc2nc(-c3ccc(Oc4ccc(Cl)cc4)cc3)[nH]c2c1 [BML-277]
- prevention of Dox-induced tetramerization, TAp63α [4]: Tetramerization can also be prevented
- prevention of Dox-induced tetramerization, GTAp63α [5]: Tetramerization can also be prevented
- prevention of Dox-induced tetramerization, TA*p63α [6]: Tetramerization can also be prevented

B1: TA*p63α (natural protein, UniProt Q9H3D4-1 1-680, looked up)
chain: MNFETSRCATLQYCPDPYIQRFVETPAHFSWKESYYRSTMSQSTQTNEFLSPEVFQHIWDFLEQPICSVQPIDLNFVDEPSEDGATNKIEISMDCIRMQDSDLSDPMWPQYTNLGLLNSMDQQIQNGSSSTSPYNTDHAQNSVTAPSPYAQPSSTFDALSPSPAIPSNTDYPGPHSFDVSFQQSSTAKSATWTYSTELKKLYCQIAKTCPIQIKVMTPPPQGAVIRAMPVYKKAEHVTEVVKRCPNHELSREFNEGQIAPPSHLIRVEGNSHAQYVEDPITGRQSVLVPYEPPQVGTEFTTVLYNFMCNSSCVGGMNRRPILIIVTLETRDGQVLGRRCFEARICACPGRDRKADEDSIRKQQVSDSTKNGDGTKRPFRQNTHGIQMTSIKKRRSPDDELLYLPVRGRETYEMLLKIKESLELMQYLPQHTIETYRQQQQQQHQHLLQKQTSIQSPSSYGNSSPPLNKMNSMNKLPSVSQLINPQQRNALTPTTIPDGMGANIPMMGTHMPMAGDMNGLSPTQALPPPLSMPSTSHCTPPPPYPTDCSIVSFLARLGCSSCLDYFTTQGLTTIYQIEHYSMDDLASLKIPEQFRHAIWKGILDHRQLHEFSSPSHLLRTPSSASTVSVGSSETRGERVIDAVRFTLRQTISFPPRDEWNDFNFDMDARRNKQQRIKEEGE
notes: TA*p63α: another translation start site adds 39 aa N-terminally to TAp63α; phosphorylated after doxorubicin (phosphoshift on SDS-PAGE); also called myc-tagged TA*p63α wt; source: U2OS, transiently transfected, in lysate; not shown: myc, N-terminal, kept
- stoichiometry N [11]: 4 and 2

B2: TA*p63α (natural protein, UniProt Q9H3D4-1 1-680, looked up)
chain: MNFETSRCATLQYCPDPYIQRFVETPAHFSWKESYYRSTMSQSTQTNEFLSPEVFQHIWDFLEQPICSVQPIDLNFVDEPSEDGATNKIEISMDCIRMQDSDLSDPMWPQYTNLGLLNSMDQQIQNGSSSTSPYNTDHAQNSVTAPSPYAQPSSTFDALSPSPAIPSNTDYPGPHSFDVSFQQSSTAKSATWTYSTELKKLYCQIAKTCPIQIKVMTPPPQGAVIRAMPVYKKAEHVTEVVKRCPNHELSREFNEGQIAPPSHLIRVEGNSHAQYVEDPITGRQSVLVPYEPPQVGTEFTTVLYNFMCNSSCVGGMNRRPILIIVTLETRDGQVLGRRCFEARICACPGRDRKADEDSIRKQQVSDSTKNGDGTKRPFRQNTHGIQMTSIKKRRSPDDELLYLPVRGRETYEMLLKIKESLELMQYLPQHTIETYRQQQQQQHQHLLQKQTSIQSPSSYGNSSPPLNKMNSMNKLPSVSQLINPQQRNALTPTTIPDGMGANIPMMGTHMPMAGDMNGLSPTQALPPPLSMPSTSHCTPPPPYPTDCSIVSFLARLGCSSCLDYFTTQGLTTIYQIEHYSMDDLASLKIPEQFRHAIWKGILDHRQLHEFSSPSHLLRTPSSASTVSVGSSETRGERVIDAVRFTLRQTISFPPRDEWNDFNFDMDARRNKQQRIKEEGE
notes: TA*p63α: another translation start site adds 39 aa N-terminally to TAp63α; also called myc-tagged TA*p63α; source: H1299, transiently transfected (pcDNA3), in lysate; not shown: myc, N-terminal, kept
- stoichiometry N [12]: 2
- stoichiometry N [11]: 4
